Measurements: patent US20250346673A1 (DUALITY BIOLOGICS SUZHOU, published 2025)
One block for each binder: values may come before it.

What was measured:
cynomolgus BDCA2 = target: T1, cynomolgus BDCA2 (cynomolgus monkey, UniProt A0A2K5UWP4 1-212); test: FACS on 293F-cynoBDCA2 cells; EC50 table under the plot, unit from the x axis (nM) [continued) c.]
T1 construct: whole, on cells; also called Cyno BDCA2; cynoBDCA2
T1 sequence: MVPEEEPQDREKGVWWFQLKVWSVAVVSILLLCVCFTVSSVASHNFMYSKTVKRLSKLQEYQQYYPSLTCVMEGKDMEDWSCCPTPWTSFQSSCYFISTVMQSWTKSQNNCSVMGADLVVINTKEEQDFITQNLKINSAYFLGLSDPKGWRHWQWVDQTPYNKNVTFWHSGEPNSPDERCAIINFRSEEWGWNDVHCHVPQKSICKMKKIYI
Description: (§1) The cells were recovered and resuspended to 2×10⁶/mL with FACS buffer (PBS+2% FBS). The cells were added to 3799 cell plates (Corning) at 100 μL/well, and the supernatant was discarded after centrifugation at 300 g. The antibodies were serially diluted with FACS buffer (Id.), the diluted antibodies were added to centrifuged cells and the cells were resuspended. The cells were incubated at 4° C. for 1 h. The incubated cells were then centrifuged at […] for 5 min and washed twice with FACS buffer. 100 μL Donkey anti-Mouse IgG (H+L) Highly Cross-Adsorbed Secondary Antibody-Alexa Fluor 488 (Invitrogen, A21202; 1:1000) secondary antibody was added to the cells, which were washed twice with FACS buffer after incubation at 4° C. for 1 h, resuspended with PBS, analyzed with FACS (BD FACS CantoTM II) instrument. The curve was fitted with GraphPad Prism6, and EC₅₀ values were calculated.

human BDCA2 [1] = target: T2, human BDCA2 (human, UniProt Q8WTT0 1-213); test: FACS on CHOK1-hBDCA2 cells; EC50 table under the plot, unit from the x axis (nM) [continued) c.]
T2 construct: whole, on cells; also called hBDCA2; Blood dendritic cell antigen 2
T2 sequence (looked up): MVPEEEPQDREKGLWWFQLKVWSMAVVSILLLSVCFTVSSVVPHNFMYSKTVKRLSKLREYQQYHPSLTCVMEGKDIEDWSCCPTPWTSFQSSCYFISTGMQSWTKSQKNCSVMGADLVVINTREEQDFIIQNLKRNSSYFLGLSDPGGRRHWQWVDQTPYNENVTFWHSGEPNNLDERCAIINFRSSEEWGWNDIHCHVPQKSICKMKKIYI
Description: as §1

human BDCA2 [2] = target: T2, human BDCA2; test: FACS on CHOK1-hBDCA2 cells; EC50 table under the plot, unit from the x axis (nM)
Description: (§2) The cells were recovered and resuspended to 2×10⁶/mL with FACS buffer (PBS+2% FBS). The cells were added to 3799 cell plates (Corning) at 100 μL/well, and the supernatant was discarded after centrifugation at 300 g. The antibodies were serially diluted with FACS buffer (Id.), the diluted antibodies were added to centrifuged cells and the cells were resuspended. The cells were incubated at 4° C. for 1 h. The incubated cells were centrifuged at 300 g for 5 min and washed twice with FACS buffer. 100 μL […] anti-Human IgG (H+L) Cross-Adsorbed Secondary Antibody-Alexa Fluor 488 (Sigma, A11013; 1:1000) secondary antibody was added, washed twice with FACS buffer after incubation at 4° C. for 1 h, resuspended with PBS, analyzed with FACS (BD FACS CantoTM II) instrument and curve fitted with GraphPad Prism6, and EC₅₀ values were calculated.

human BDCA2 [3] = target: T2, human BDCA2; test: FACS, CHOK1-humanBDCA2 cells
Description: (§3) The cells were recovered and resuspended to 2×10⁶/mL with FACS buffer (PBS+2% FBS). The resuspended cells were added to 3799 cell plates at 100 μL/well, and the supernatant was discarded after centrifugation at 300 g. […] The cells were incubated at 4° C. for 1 h. The incubated cells were centrifuged at […] for 5 min and washed twice with FACS buffer. 100 μL Goat anti-Human IgG (H+L) Cross-Adsorbed Secondary Antibody, Alexa Fluor 488 (Sigma, A11013; 1:1000) secondary antibody was added, washed twice with FACS buffer after incubation at 4° C. for 1 h. The cells were resuspended with PBS, then the fluorescence signal of antibodies bound to cell surface was analyzed with FACS (BD FACS CantoTM II) instrument and curves were fitted with GraphPad Prism6 to calculate EC₅₀ values for antibodies binding to BDCA2 antigen.

human BDCA2 [4] = target: T2, human BDCA2; test: FACS on CHOK1-hBDCA2 cells; EC50 table under the plot, unit from the x axis (nM) [continued) e.]
Description: as §1

human BDCA2 [5] = target: T2, human BDCA2; test: FACS, CHOK1-humanBDCA2 cells; remark: listed apart in the source
Description: as §3

Recombinant Human BDCA2 = target: T3, Recombinant Human BDCA2 (human, UniProt Q8WTT0 45-213, limits assumed); test: SPR (BIAcore), antibody captured by anti-human IgG (Fc), hBDCA2 as analyte, 1:1 model
T3 construct: also called hBDCA2 (SPR analyte); human BDCA2 antigen
T3 sequence (looked up): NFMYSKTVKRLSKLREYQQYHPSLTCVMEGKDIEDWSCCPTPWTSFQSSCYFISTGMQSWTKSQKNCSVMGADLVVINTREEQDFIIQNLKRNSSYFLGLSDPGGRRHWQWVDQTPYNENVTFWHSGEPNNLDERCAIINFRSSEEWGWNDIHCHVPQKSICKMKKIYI
Description: Then 1 M ethanolamine was injected at 10 μL/min flow rate for 420 seconds, and the excess active carboxyl groups on chip were blocked. The humanized antibodies were injected into a detection channel flow cell at flow rate of 10 μL/min for 60 s for capture after diluting to 1 μg/mL using running buffer. […] The sample hBDCA2 to be tested of each concentration gradient was injected into the detection channel at 30 μL/min flow rate, two samples at 0 concentration were used to remove background signal. The binding and dissociation times between antigen and antibody were 180 and 400 sec, respectively. An analysis of data was performed using Biacore Insight Evaluation Software (Version 2.0. 15.12933). A 1:1 binding model was selected for curve fitting and kinetic parameters were calculated after subtraction of signal of the reference channel (flow cell 1) and at 0 concentration.

human BDCA2 [6] = target: T2, human BDCA2; test: FACS on CHOK1-hBDCA2 cells; EC50 table under the plot, unit from the x axis (nM); remark: listed apart in the source
Description: as §2

human BDCA2 [7] = target: T2, human BDCA2; test: as above; remark: listed apart in the source
Description: as §1

human BDCA2 [8] = target: T2, human BDCA2; test: FACS on CHOK1-hBDCA2 cells; EC50 table beside the plot, unit from the x axis (nM) [continued) c.]
Description: as §2

human BDCA2 [9] = target: T2, human BDCA2; test: FACS on CHOK1-hBDCA2 cells; EC50 table under the plot, unit from the x axis (nM) [continued) d.]
Description: as §1

human BDCA2 [10] = target: T2, human BDCA2; test: FACS on CHOK1-hBDCA2 cells; EC50 table under the plot, unit from the x axis (nM); remark: listed apart in the source
human BDCA2 [11] = target: T2, human BDCA2; test: cell-based or functional assay

- EC50 (cynomolgus BDCA2): 1.78 nM
- EC50 (human BDCA2 [1]): 1.33 nM
B1: mAb016 (antibody, V domains shown)
VH: QVQLKQSGPGLVQPSQSLSITCTVSGFSLTSYGVHWVRQSPGKGLEWLGVIWSGESTDYDAAFISRLSISKDNSKSQVFFRMNSLQADDSAIYYCARRRSHYYGYVMDYWGQGTSVTVSS
VL: DIVLTQSPASLAVSLGQRATISCKASQSVDYDGVGYLNWYQHKPGQPPKLLIYAASNLESGIPARFSGSGSGTDFTLNIHPVEEEDAATYYCQQSNEDPPTFGSGTKLEIK
notes: Mouse hybridoma antibody

- EC50 (human BDCA2 [2]): 1.91 nM
- EC50 (human BDCA2 [3]): 1.3 nM
- EC50 (human BDCA2 [4]): 1.91 nM
- EC50 (human BDCA2 [5]): 3.1 nM
- Kd (Recombinant Human BDCA2): 1.07 nM
- EC50 (human BDCA2 [6]): 3.45 nM
- EC50 (human BDCA2 [7]): 2.17 nM
- EC50 (human BDCA2 [8]): 2 nM
- EC50 (human BDCA2 [9]): 1.09 nM
- EC50 (human BDCA2 [10]): 2.17 nM
- EC50 (human BDCA2 [1]): 2.48 nM
- EC50 (nM), inhibition of CpG-A stimulated IFNα release from human PBMC (human BDCA2 [11]): 0.04 nM
B2: BIIB059 (antibody, V domains shown)
VH: DVQLVESGGGLVKPGGSLRLSCAASGFTFSTYTMSWVRQAPGKGLEWVATISPGDSFGYYYPDSVQGRFTISRDNAKNSLYLQMNSLRAEDTAVYYCTRDIYYNYGAWFAYWGQGTLVTVSS
VL: DIQLTQSPSSLSASVGDRVTITCKASQSVDYDGDSYMNWYQQKPGKAPKLLIYAASTLESGVPSRFSGSGSGTDFTLTISSLQPEDFATYYCQQANEDPRTFGQGTKVEIKR
